Assay results: the supplement of paper PMC12042874
± gives the uncertainty stated by the source.

Assay: amyloid nucleation score (Sup35N fusion, yeast selection) (log enrichment); library NNK3; higher = more nucleation; inactive = no reads after selection
Procedure, shortened: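 Libraries of peptides of 20 random codons fused to Sup35N were expressed in psi-negative yeast and induced 24 hours with 100 μM copper sulfate. Selection was 7 days at 30°C on medium lacking adenine and uracil, and plasmid inserts were Illumina-sequenced before and after selection. Nucleation score is the DiMSum log enrichment of output over input reads, centred on the mode score of non-aggregating sequences, and sequences with under 100 input reads were left out.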

Row | Substance | amyloid nucleation score
1 | CDHFQWYFLDRCLSVRCMIF | 0.054 ± 0.36
2 | DAVGCNILACDSGGRDWTGG | -0.744 ± 1.2
3 | TEDGPYTIWH | inactive
4 | NRFCLRSTLSYSWYGDRSWA | 0.185 ± 0.7
5 | SCVGVRVLCSAVV | inactive
6 | SFVQRVSLLMSVSVFETASS | inactive
7 | LFLSMGYLDGFYPIRSISYL | inactive
8 | GSSWCLTLWLKNSLATVQTQ | inactive
9 | CVHYRFMLSRLYMILVPLTY | inactive
10 | LCRKPFDVGLGRV | inactive
11 | ADIGPHRCVLGAMMRWCRQT | inactive
12 | NVNLVSIVVVIMDEKDKVKE | 2.84 ± 0.07
13 | SSCTLVKAGLVNFLRARYSG | inactive
14 | WVIACVMRYVVFKNKVMIVR | inactive
15 | APWYVNWGMYNCEWGRGS | inactive
16 | VKFSTRNFNKVQLHVFTTCM | inactive
17 | KFWLKVHFYEHKWSWVMFEC | inactive
18 | TSTYSFCTRVWYPASIIFGR | inactive
19 | VRITSMPTFWRIEPGYLERV | inactive
20 | NYGQALHWLLRGGSMWSQGT | inactive
21 | KNSASLFL | inactive
22 | MSTMVYRASRCGRLG | 0.399 ± 0.53
23 | KERCLVSHCTTLCALFLRVI | inactive
24 | RYYDLVSGSWWIYFG | inactive

Row | Substance | amyloid nucleation score
25 | RIVNS | inactive
26 | PTITNS | inactive
27 | NLKILPAVDHCSDHPMERNE | inactive
28 | SRSVDLLSLSRYIYLESRYD | inactive
29 | DVDVPT | inactive
30 | SFFLIRG | inactive
31 | NTIGNNVKYETRCNQSV | inactive
32 | PLCWNLNIRDTGIYRPRMRP | inactive
33 | APPGFFIIVMSCWCYITRAL | inactive
34 | VKCQRRH | inactive
35 | SKRVIVWVTSLYWDV | inactive
36 | VNFRIKAIVVSLRGYDWLSG | 0.287 ± 0.67
37 | FLVLVGIGIGMYLFVNHYVD | 1.64 ± 0.088
38 | CSLRLVAFSACGV | inactive
39 | LAAICYEVFGCGTWMGC | inactive
40 | PYSISMISTRYCLGRQHD | inactive
41 | NYAYPIPIRLLIEAWRMGTA | inactive
42 | ISWVRFRAVFWMRMFEAH | -0.441 ± 1.4
43 | SDQVGFQIEVFCVKS | inactive
44 | TDMIQYKHRLYTIILSNYAR | inactive
45 | KSRKFYKTSLCLMNTYLMNM | inactive
46 | HSQKTTKALRNPSNIQ | inactive
47 | HYMFSVVNVSGDCFFLSESN | 3.24 ± 0.071
48 | HLRDMQRSQNLVG | inactive

Row | Substance | amyloid nucleation score
49 | YRDTICPYETAREDMNYLLG | inactive
50 | DVVLTNVFDCML | inactive
51 | GFAISQAYALSTPFVCISAI | inactive
52 | HLFGDFDKWVDKLWRYNRVD | 0.985 ± 0.21
53 | EAPRFCSRAMDYVILQGWTL | inactive
54 | AGKKLSRITTWSNTLLDPKS | inactive
55 | ILPDLRTFPWSPVVIVHSR | inactive
56 | VFVTM | inactive
57 | MCSRCVAKLATTPRLGFNDS | inactive
58 | ILAHPCSYRFGSWGRLINRN | inactive
59 | YRYMVRITCGCFHAVNDT | 1.19 ± 0.14
60 | TKCLLFFNRGCR | 1.1 ± 0.14
61 | CESDEH | inactive
62 | GTCKS | inactive
63 | YKLKLIKEFCIGIRC | inactive
64 | CLVSLVFRFIVY | inactive
65 | IYLIPITPIPVCYKIFLFGM | 1.19 ± 0.079
66 | AAPKGGYPVLCCSVRTGRN | 0.804 ± 0.13
67 | LHVDS | inactive
68 | TRVDLLYRSRNDGIVFFSRF | 0.773 ± 0.2
69 | CYWVRDSRLGW | inactive
70 | RTVIGLPASMLLSCDHISFV | inactive
71 | LGQFAIAQYFNRYSRGPMLW | inactive
72 | SFGLF | inactive

Row | Substance | amyloid nucleation score
73 | FILYMCKCS | inactive
74 | NSDMESDSHSNKVVRYLCGP | inactive
75 | RAKVISSWSLPGSSVKSYPA | inactive
76 | EDPGLYFLRVS | inactive
77 | SMACCGLSIAATNAPKVPKV | 0.498 ± 0.34
78 | NSGHLVLGCMYIFSNGFVDR | 1.22 ± 0.14
79 | LAKHSFSFGVYCNSRNSVMY | inactive
80 | GIAGCKSRSCLLPYCNWVSV | inactive
81 | LWKFSILAYRRFILFKLQMN | inactive
82 | YYCMFVGD | 1.24 ± 0.15
83 | QIALSYSCIITRCVCNLCQR | 3.12 ± 0.056
84 | NRAVNFIVWWMYL | inactive
85 | LMLRVHGMW | inactive
86 | CLDARYKMRV | inactive
87 | RIRKRQCWSFVLLLYCGCVT | inactive
88 | SHYSSWVSRDRWSNTEFGMV | inactive
89 | VSDKHVYCMEGCMP | inactive
90 | WSSSW | inactive
91 | LYLYYSSTVSLVKYSNEVNC | inactive
92 | MLSYYRFWCPVGRVVMMSFW | inactive
93 | IPIFWCYI | inactive
94 | TDVISRMMRGGQVLCMCKQC | inactive
95 | RFLFSCCVGL | 2.3 ± 0.06
96 | HSNSRD | -0.231 ± 0.69

Row | Substance | amyloid nucleation score
97 | YVKPDDDAQVKVGWGQFSVG | inactive
98 | GKFVRLPPISRISHLWNCEL | inactive
99 | SYLPEFRCVVRFKFFQDKLL | inactive
100 | RRSISGKVLFTRIQSYLLKF | -0.759 ± 1
101 | LYPMGFQ | inactive
102 | DDVLYS | -0.19 ± 0.34
103 | FWKFRGQTWYCFAGTDGISH | -0.002 ± 0.75
104 | RMGIYCGDRFQ | inactive
105 | DILFDGESLFPYTENSWETR | inactive
106 | HWPCLNSYEAIVFFCGMDSH | inactive
107 | DDVTHISLKKNSDNLGYNSR | inactive
108 | FTNYRSRGNMVRGGPCRPSY | inactive
109 | RSWLLSSEFVVVIFSNTEGM | 1.24 ± 0.16
110 | YNEHLQLAVWRYALTVGKVW | inactive
111 | MCRMLFISGIQNCDPDVIMH | 1.15 ± 0.12
112 | IAPYGRGWKDYLIDSEHVRT | inactive
113 | NIGRNMLRCVNLTT | inactive
114 | FYYTKDPRIGKNNYLCV | inactive
115 | RLGMWVFWCRL | inactive
116 | SLPRV | inactive
117 | TKLWFCNFCYSLDAGIGKCV | 2.37 ± 0.077
118 | ITVSTGW | inactive
119 | VRRCNTCLQ | inactive
120 | KRKQVSFTH | inactive

Row | Substance | amyloid nucleation score
121 | FRCPMFFNCSSVLTSHVSLA | 1.34 ± 0.16
122 | RKSHD | inactive
123 | IGLSLE | inactive
124 | SAGACSV | inactive
125 | SGDLMEGGEYF | inactive
126 | TCVMPGVSQLRFGYWVWICR | inactive
127 | PHSQDMVWQCCWGGATAEES | -0.047 ± 0.72
128 | YLVWVFPEWPC | 1.39 ± 0.13
129 | ICDFCQQCSVNERKTLNYSA | inactive
130 | WSYIVLTVLTWVACCTFWFV | -0.436 ± 0.49
131 | PGSGIHNWMNCYRSLKE | inactive
132 | RYCIVLTDNVNTLHNLIIMV | inactive
133 | LAFADRITGYGWSGTVRMMW | inactive
134 | MSQKEGFSDTGLLLRRSTRS | inactive
135 | TNTYF | inactive
136 | IKRCK | 1.39 ± 0.076
137 | CLGLHQILM | inactive
138 | CRRVTKFESAFTWIFCKSCD | -0.013 ± 0.39
139 | ILVIYCRVMKCFKCTRMRLC | inactive
140 | TSFGYNLGLRRCSYRMTAEW | 1.44 ± 0.13
141 | LDTSD | inactive
142 | VNTFVFTGFCMYSFVMSWLN | 0.525 ± 0.2
143 | YDKVLRPMVSYYSR | inactive
144 | VCGILRIIILGLMYVEALGW | inactive

Row | Substance | amyloid nucleation score
145 | TVSKANWVLLEFLTFCGMI | 1.74 ± 0.096
146 | RANWLGLVTVGS | inactive
147 | SPDGIGTMRGNFLGTPWRCR | inactive
148 | GVNVWRYLCH | inactive
149 | ALSMLTG | inactive
150 | FYCGIWAYVEDCC | 2.53 ± 0.057
151 | LRHWRMRLSIGN | inactive
152 | SHECHSFLHVLFNVACSWGG | inactive
153 | RINMELLWIFGGSTWFINRG | 1.93 ± 0.084
154 | NCCNPCFVNLQSR | 2.66 ± 0.066
155 | CHNKKWVDFNVCFYNMLSFY | inactive
156 | RIGAYYPMFIFAVLVGSALG | inactive
157 | LTDSY | inactive
158 | KLGIRPDRISVTWCLSNTTV | -0.473 ± 1.3
159 | IRFQSYRLASSSLVCDCVFC | 0.627 ± 0.31
160 | MLCTTLRNYMTSSICFIRYQ | inactive
161 | DIFSRSVS | inactive
162 | CILYYLNSSMVIGTCLFILN | 1.36 ± 0.085
163 | GCNNVH | inactive
